Consider 2 molecules from patent US20040152193A1 (LUDWIG INSTITUTE FOR CANCER RESEARCH, published 2004).

Assay [1] concerns the target HLA-A*0201 (human). Description: cell-based or functional assay.
Assay [2] concerns the target HLA-A*0201 (human). Description: cell-based or functional assay. The source holds these as a separate data set.

In the case of EVDPIGHLY [MAGE-3 TRAP 168-176 peptide EVDPIGHLY], in the assay with HLA-A*0201 [1], the “Competitor [µM] 50%” value was above 100 µM and the Relative competitor activity was < 0.6 ratio to SEQ ID NO: 2.
On to ILTVILGVL [Melan-A 32-40 nonapeptide ILTVILGVL], for which the “Relative Competitor Activity, Exp3” value with HLA-A*0201 [2] is 2 ratio to SEQ ID NO: 2.
